Positions count from the first letter of the chain named. Names and notes keep the numbering of the source.
B1: PDR G3T (dsDNA)
DNA 1: AAACTGGAATCGAAACTTTGCGGCCATTTTTCGGTGATAAAAACATTTTT
DNA 2: AAAAATGTTTTTATCACCGAAAAATGGCCGCAAAGTTTCGATTCCAGTTT
B2: PIR C4A (dsDNA)
DNA 1: ATGTTTAGTGGAAATGATTGCGGCATCCCGAAAAAAATATTGCTGTAAAT
DNA 2: ATTTACAGCAATATTTTTTTCGGGATGCCGCAATCATTTCCACTAAACAT
B3: PDR (perfect direct repeat) (dsDNA)
DNA 1: B1 DNA 1 with T31G
DNA 2: B1 DNA 2 with A20C
B4: PIR (perfect inverted repeat) (dsDNA)
DNA 1: B2 DNA 1 with A31C
DNA 2: B2 DNA 2 with T20G
B5: PDR n1 (dsDNA)
DNA 1: AAACTGGAATCGAAACTTTGCGGCTTGCGGTGATAAAAACATTTTT
DNA 2: AAAAATGTTTTTATCACCGCAAGCCGCAAAGTTTCGATTCCAGTTT
B6: PDR n2 (dsDNA)
DNA 1: AAACTGGAATCGAAACTTTGCGGCCTTGCGGTGATAAAAACATTTTT
DNA 2: AAAAATGTTTTTATCACCGCAAGGCCGCAAAGTTTCGATTCCAGTTT
B7: PDR n3 (dsDNA)
DNA 1: AAACTGGAATCGAAACTTTGCGGCCATTGCGGTGATAAAAACATTTTT
DNA 2: AAAAATGTTTTTATCACCGCAATGGCCGCAAAGTTTCGATTCCAGTTT
B8: PDR n7 (dsDNA)
DNA 1: AAACTGGAATCGAAACTTTGCGGCCATTACTTGCGGTGATAAAAACATTTTT
DNA 2: AAAAATGTTTTTATCACCGCAAGTAATGGCCGCAAAGTTTCGATTCCAGTTT
B9: PDR n9 (dsDNA)
DNA 1: AAACTGGAATCGAAACTTTGCGGCCATTACCATTGCGGTGATAAAAACATTTTT
DNA 2: AAAAATGTTTTTATCACCGCAATGGTAATGGCCGCAAAGTTTCGATTCCAGTTT
B10: PDR n10 (dsDNA)
DNA 1: AAACTGGAATCGAAACTTTGCGGCCATTACCATTTGCGGTGATAAAAACATTTTT
DNA 2: AAAAATGTTTTTATCACCGCAAATGGTAATGGCCGCAAAGTTTCGATTCCAGTTT
B11: PDR n15 (dsDNA)
DNA 1: AAACTGGAATCGAAACTTTGCGGCCATTACCATCTACTTTGCGGTGATAAAAACATTTTT
DNA 2: AAAAATGTTTTTATCACCGCAAAGTAGATGGTAATGGCCGCAAAGTTTCGATTCCAGTTT
B12: PIR n1 (dsDNA)
DNA 1: ATGTTTAGTGGAAATGATTGCGGCCCGCAAAAAATATTGCTGTAAAT
DNA 2: ATTTACAGCAATATTTTTTGCGGGCCGCAATCATTTCCACTAAACAT
B13: PIR n2 (dsDNA)
DNA 1: ATGTTTAGTGGAAATGATTGCGGCACCGCAAAAAATATTGCTGTAAAT
DNA 2: ATTTACAGCAATATTTTTTGCGGTGCCGCAATCATTTCCACTAAACAT
B14: PIR n3 (dsDNA)
DNA 1: ATGTTTAGTGGAAATGATTGCGGCATCCGCAAAAAATATTGCTGTAAAT
DNA 2: ATTTACAGCAATATTTTTTGCGGATGCCGCAATCATTTCCACTAAACAT
B15: PIR n6 (dsDNA)
DNA 1: ATGTTTAGTGGAAATGATTGCGGCATCTCCCGCAAAAAATATTGCTGTAAAT
DNA 2: ATTTACAGCAATATTTTTTGCGGGAGATGCCGCAATCATTTCCACTAAACAT
B16: PIR n8 (dsDNA)
DNA 1: ATGTTTAGTGGAAATGATTGCGGCATCTCCACCGCAAAAAATATTGCTGTAAAT
DNA 2: ATTTACAGCAATATTTTTTGCGGTGGAGATGCCGCAATCATTTCCACTAAACAT
B17: PIR n10 (dsDNA)
DNA 1: ATGTTTAGTGGAAATGATTGCGGCATCTCCACACCGCAAAAAATATTGCTGTAAAT
DNA 2: ATTTACAGCAATATTTTTTGCGGTGTGGAGATGCCGCAATCATTTCCACTAAACAT
B18: PIR n14 (dsDNA)
DNA 1: ATGTTTAGTGGAAATGATTGCGGCATCTCCACATACCCCGCAAAAAATATTGCTGTAAAT
DNA 2: ATTTACAGCAATATTTTTTGCGGGGTATGTGGAGATGCCGCAATCATTTCCACTAAACAT
B19: Ppel DR1 only (dsDNA)
DNA 1: CGGCCTTTTGGTTTTTTTGCGGTCTGGCTGTTGGGAGTCTTTAGAAT
DNA 2: ATTCTAAAGACTCCCAACAGCCAGACCGCAAAAAAACCAAAAGGCCG
B20: Ppel DR2 only (dsDNA)
DNA 1: CGGCCGGTTTTTTTTTTTGCGGTCTTTGCGGTGGGAGTCTTTAGAAT
DNA 2: ATTCTAAAGACTCCCACCGCAAAGACCGCAAAAAAAAAAACCGGCCG
B21: Ppel DR3 only (dsDNA)
DNA 1: CGGCCGGTTTTTTTTTGGCTGTTCTTTGCGGTGGGATTTTGCAGAAT
DNA 2: ATTCTGCAAAATCCCACCGCAAAGAACAGCCAAAAAAAAACCGGCCG
B22: Ppel IR-DR core (dsDNA)
DNA 1: GGATTTTGCAGAATGCCGCAATAGGATAGCGGAACATTTTCGGTTCTG
DNA 2: CAGAACCGAAAATGTTCCGCTATCCTATTGCGGCATTCTGCAAAATCC
B23: PDR ex7 (RE4 T1C) (dsDNA)
DNA 1: B1 DNA 1 with T29C, T31G
DNA 2: B1 DNA 2 with A20C, A22G

target: T1, ComA (Bacillus subtilis, UniProt P14204 1-214); test: EMSA; EMSA: 10 mM HEPES pH 7.6, 2 mM MgCl2, 0.1 mM EDTA, 200 mM KCl, 5 mM DTT, 10% glycerol; 10 ng DNA in 15 ul, 20 min, room temperature; details: protein: recombinant; tags: N-terminal His6 (from expression primer); chain copies: 2; label: 5' biotin on strand 1; blunt
T1 sequence: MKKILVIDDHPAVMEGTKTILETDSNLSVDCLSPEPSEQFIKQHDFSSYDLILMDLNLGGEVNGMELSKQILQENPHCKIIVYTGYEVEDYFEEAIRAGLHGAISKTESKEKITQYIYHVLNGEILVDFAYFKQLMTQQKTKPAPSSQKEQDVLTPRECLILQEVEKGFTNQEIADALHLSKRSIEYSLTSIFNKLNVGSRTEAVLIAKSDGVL

Binder	binding signal [fold reduced affinity]
B1	~2
B2	~2

target: T2, ComA;RNA polymerase alpha subunit (Bacillus subtilis;Bacillus subtilis, UniProt P14204;P20429 1-214;1-314, |); test: EMSA; supershift; EMSA: 10 mM HEPES pH 7.6, 2 mM MgCl2, 0.1 mM EDTA, 200 mM KCl, 5 mM DTT, 10% glycerol; 10 ng DNA in 15 ul, 20 min, room temperature; details: protein: recombinant;recombinant; tags: N-terminal His6 (from expression primer);N-terminal His6 (from expression primer); label: 5' biotin on strand 1; blunt
T2 sequence 1: T1 sequence
T2 sequence 2: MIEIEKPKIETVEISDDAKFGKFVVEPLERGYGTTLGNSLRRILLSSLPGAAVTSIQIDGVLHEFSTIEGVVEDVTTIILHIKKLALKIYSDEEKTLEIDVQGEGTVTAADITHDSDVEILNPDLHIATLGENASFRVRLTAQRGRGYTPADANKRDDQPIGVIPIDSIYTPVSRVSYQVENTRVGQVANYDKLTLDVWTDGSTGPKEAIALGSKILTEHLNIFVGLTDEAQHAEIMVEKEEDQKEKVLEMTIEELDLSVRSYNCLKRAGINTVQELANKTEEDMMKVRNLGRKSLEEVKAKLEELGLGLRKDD

Binder	binding result
B3	binds

target: T1, ComA; test: EMSA; complex at 1.2 uM or more; affinity similar to PIR; EMSA: 10 mM HEPES pH 7.6, 2 mM MgCl2, 0.1 mM EDTA, 200 mM KCl, 5 mM DTT, 10% glycerol; 10 ng DNA in 15 ul, 20 min, room temperature; details: protein: recombinant; tags: N-terminal His6 (from expression primer); chain copies: 2; label: 5' biotin on strand 1; blunt

Binder	binding result
B3	binds

target: T3, ComA;sigma factor sigmaA (Bacillus subtilis;Bacillus subtilis, UniProt P14204;P06224 1-214;1-371, |); test: EMSA; supershift, lower mobility than PIR; EMSA: 10 mM HEPES pH 7.6, 2 mM MgCl2, 0.1 mM EDTA, 200 mM KCl, 5 mM DTT, 10% glycerol; 10 ng DNA in 15 ul, 20 min, room temperature; details: protein: recombinant;recombinant; tags: N-terminal His6 (from expression primer);N-terminal His6 (from expression primer); chain copies: 2;1; label: 5' biotin on strand 1; blunt

Binder	binding result
B3	binds

target: T3, ComA;sigma factor sigmaA; test: EMSA; supershift, same sigmaA concentration as PDR; EMSA: 10 mM HEPES pH 7.6, 2 mM MgCl2, 0.1 mM EDTA, 200 mM KCl, 5 mM DTT, 10% glycerol; 10 ng DNA in 15 ul, 20 min, room temperature; details: protein: recombinant;recombinant; tags: N-terminal His6 (from expression primer);N-terminal His6 (from expression primer); chain copies: 2;1; label: 5' biotin on strand 1; blunt

Binder	binding result
B4	binds

target: T1, ComA; test: EMSA; complex at 1.2 uM or more; affinity similar to PDR; EMSA: 10 mM HEPES pH 7.6, 2 mM MgCl2, 0.1 mM EDTA, 200 mM KCl, 5 mM DTT, 10% glycerol; 10 ng DNA in 15 ul, 20 min, room temperature; details: protein: recombinant; tags: N-terminal His6 (from expression primer); chain copies: 2; label: 5' biotin on strand 1; blunt

Binder	binding result
B4	binds

target: T1, ComA; test: EMSA; EMSA: 10 mM HEPES pH 7.6, 2 mM MgCl2, 0.1 mM EDTA, 200 mM KCl, 5 mM DTT, 10% glycerol; 10 ng DNA in 15 ul, 20 min, room temperature; details: protein: recombinant; tags: N-terminal His6 (from expression primer); chain copies: 2; label: 5' biotin on strand 1; blunt; remark: another data set of the same source

Binder	binding result
B5	no binding
B6	no binding
B7	no binding
B8	no binding
B9	no binding
B10	no binding
B11	no binding
B12	no binding
B13	no binding
B14	no binding
B15	no binding
B16	no binding
B17	no binding
B18	no binding
B19	no binding
B20	no binding
B21	no binding
B22	binds

target: T2, ComA;RNA polymerase alpha subunit; test: EMSA; supershift, same alpha concentration as PDR; EMSA: 10 mM HEPES pH 7.6, 2 mM MgCl2, 0.1 mM EDTA, 200 mM KCl, 5 mM DTT, 10% glycerol; 10 ng DNA in 15 ul, 20 min, room temperature; details: protein: recombinant;recombinant; tags: N-terminal His6 (from expression primer);N-terminal His6 (from expression primer); label: 5' biotin on strand 1; blunt

Binder	binding result
B4	binds

target: T1, ComA; test: EMSA; EMSA: 10 mM HEPES pH 7.6, 2 mM MgCl2, 0.1 mM EDTA, 200 mM KCl, 5 mM DTT, 10% glycerol; 10 ng DNA in 15 ul, 20 min, room temperature; details: protein: recombinant; tags: N-terminal His6 (from expression primer); chain copies: 2; label: 5' biotin on strand 1; blunt; remark: another data set of the same source

Binder	binding signal [fold reduced affinity]
B23	~2

Source: PMC4797271, “The quorum-sensing regulator ComA from Bacillus subtilis activates transcription using topologically distinct DNA motifs”
